For three substances, active site titration: degradation of Z-Phe-Arg-AMC by cathepsin L (2.5 nM) with p41 fragment 0.5 nM to 3 nM; molar ratio and stoichiometry N results are on record in article PMC4784741.

In assay [1] the target is recombinant human cathepsin L (human).
In assay [2] the target is recombinant p31 Ii without cytoplasmic and transmembrane domain (and no inhibitory fragment) (human). The assay can be described thus: SDS-PAGE with Western blot; recombinant Ii isoforms separated by SDS-PAGE, blotted and labelled with anti-Ii (LN2) mAb; minor bands above the monomers. In general terms: In western blotting, separated proteins are transferred to a membrane and probed.

For assay [3], the target named is recombinant p41 Ii without cytoplasmic and transmembrane domain (with inhibitory p41 fragment included) (human). The assay is described as above.

recombinant p41 Ii without cytoplasmic and transmembrane domain (with inhibitory p41 fragment included) (domain or fragment), sequence (P04233 73-296): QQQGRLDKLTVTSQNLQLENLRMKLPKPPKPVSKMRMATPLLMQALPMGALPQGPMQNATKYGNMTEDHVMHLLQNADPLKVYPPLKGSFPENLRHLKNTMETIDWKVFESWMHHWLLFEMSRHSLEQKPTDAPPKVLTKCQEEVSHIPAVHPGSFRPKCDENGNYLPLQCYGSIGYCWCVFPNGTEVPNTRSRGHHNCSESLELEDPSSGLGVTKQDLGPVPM

As to “p41 fragment of invariant chain p41 Ii (domain or fragment)”, the active site titration: degradation of Z-Phe-Arg-AMC by cathepsin L (2.5 nM) with p41 fragment 0.5 nM to 3 nM; molar ratio at which the activity is abolished (molar ratio p41 fragment/cathepsin L) in assay [1] was found to be 1. As for “recombinant p31 Ii without cytoplasmic and transmembrane domain (and no inhibitory fragment) (domain or fragment)”, in assay [2], the stoichiometry N is 2. Take “recombinant p41 Ii without cytoplasmic and transmembrane domain (with inhibitory p41 fragment included) (domain or fragment)”: the stoichiometry N in assay [3] stood at 2.

In general, stoichiometry N refers to a count of units in the complex or per binding partner.
